Patent publication US20030229204A1 (Dana-Farber, published 2003)

T1: full-length mouse PGC-1 (aa 1-797) (mouse, UniProt O70343 1-797, [35S]methionine-labeled in the pull-down assays)
T1 construct: In vitro reticulocyte translation product in the pull-downs; the same full-length protein was expressed from pSV-SPORT in the transcription assays; also called reticulocyte-translated PGC-1
T1 sequence: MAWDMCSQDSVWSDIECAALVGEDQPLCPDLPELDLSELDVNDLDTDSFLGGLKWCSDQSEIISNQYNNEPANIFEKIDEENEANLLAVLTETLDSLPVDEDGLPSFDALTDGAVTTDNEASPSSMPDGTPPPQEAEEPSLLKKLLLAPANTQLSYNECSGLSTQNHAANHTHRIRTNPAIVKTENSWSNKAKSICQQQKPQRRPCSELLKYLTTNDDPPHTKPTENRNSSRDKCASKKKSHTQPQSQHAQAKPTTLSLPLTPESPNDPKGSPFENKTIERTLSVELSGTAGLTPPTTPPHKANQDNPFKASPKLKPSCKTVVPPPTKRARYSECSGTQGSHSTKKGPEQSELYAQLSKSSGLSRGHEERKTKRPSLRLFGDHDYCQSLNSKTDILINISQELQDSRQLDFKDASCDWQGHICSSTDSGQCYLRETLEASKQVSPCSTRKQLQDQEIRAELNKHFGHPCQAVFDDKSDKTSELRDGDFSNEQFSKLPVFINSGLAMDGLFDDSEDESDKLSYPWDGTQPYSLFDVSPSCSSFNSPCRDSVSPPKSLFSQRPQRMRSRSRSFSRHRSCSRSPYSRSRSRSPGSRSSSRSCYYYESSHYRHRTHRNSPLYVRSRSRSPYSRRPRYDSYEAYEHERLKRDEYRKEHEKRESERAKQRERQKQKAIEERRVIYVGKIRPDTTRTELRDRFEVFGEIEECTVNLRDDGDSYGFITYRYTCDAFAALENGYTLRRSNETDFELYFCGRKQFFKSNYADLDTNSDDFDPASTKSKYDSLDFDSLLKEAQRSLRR

T2: GST-PPARγ fusion protein (immobilized PPARγ) (UniProt P37238 1-505)
T2 construct: also called FST-PPARγ fusion protein; bacterially expressed PPARγ immobilized on beads; not shown: glutathione S-transferase (GST) moiety; printed as 'FST'
T2 sequence (looked up): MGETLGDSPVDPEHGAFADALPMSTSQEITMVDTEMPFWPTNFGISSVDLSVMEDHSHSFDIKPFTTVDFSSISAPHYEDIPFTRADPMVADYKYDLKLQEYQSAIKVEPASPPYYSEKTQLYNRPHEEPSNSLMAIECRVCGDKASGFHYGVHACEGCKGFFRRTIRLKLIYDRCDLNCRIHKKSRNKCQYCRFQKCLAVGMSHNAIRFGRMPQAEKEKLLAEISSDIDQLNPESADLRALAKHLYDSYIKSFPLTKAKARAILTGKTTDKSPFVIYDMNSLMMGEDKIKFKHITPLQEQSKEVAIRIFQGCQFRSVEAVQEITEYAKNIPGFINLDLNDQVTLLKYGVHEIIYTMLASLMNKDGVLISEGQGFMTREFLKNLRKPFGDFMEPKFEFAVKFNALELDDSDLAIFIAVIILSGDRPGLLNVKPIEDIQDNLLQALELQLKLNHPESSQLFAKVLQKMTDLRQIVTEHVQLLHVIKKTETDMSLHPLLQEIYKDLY


Tests used:
[1] = target: T1, full-length mouse PGC-1 (aa 1-797); assay: pull-down of in vitro-translated PGC-1 with GST-PPARγ deletion
Description: Most of the nuclear hormone receptor coactivators identified to date interact with the C-terminal AF-2 domain, which is responsible for ligand-dependent transcriptional activation.

[2] = target: T2, GST-PPARγ fusion protein (immobilized …); assay: pull-down of in vitro-translated 35S-labeled PGC-1 deletion with immobilized GST-PPARγ
Description: These were then translated into vitro with an [³⁵S]methionine-label. One microliter of each in vitro translation reaction was resolved by SDS-PAGE and autoradigraphed.

Binder	binding result [1]	binding result [2]
GST fusion of PPARγ 228-505 (receptor, mouse, UniProt P37238 228-505, looked up, not shown: glutathione S-transferase (GST) moiety of pGEX 5X2) DIDQLNPESADLRALAKHLYDSYIKSFPLTKAKARAILTGKTTDKSPFVIYDMNSLMMGEDKIKFKHITPLQEQSKEVAIRIFQGCQFRSVEAVQEITEYAKNIPGFINLDLNDQVTLLKYGVHEIIYTMLASLMNKDGVLISEGQGFMTREFLKNLRKPFGDFMEPKFEFAVKFNALELDDSDLAIFIAVIILSGDRPGLLNVKPIEDIQDNLLQALELQLKLNHPESSQLFAKVLQKMTDLRQIVTEHVQLLHVIKKTETDMSLHPLLQEIYKDLY	no binding	
PGC-1 1-292 (other, [35S]methionine-labeled, In vitro translated; still contains the LXXLL motif (aa 142-146)) MAWDMCSQDSVWSDIECAALVGEDQPLCPDLPELDLSELDVNDLDTDSFLGGLKWCSDQSEIISNQYNNEPANIFEKIDEENEANLLAVLTETLDSLPVDEDGLPSFDALTDGAVTTDNEASPSSMPDGTPPPQEAEEPSLLKKLLLAPANTQLSYNECSGLSTQNHAANHTHRIRTNPAIVKTENSWSNKAKSICQQQKPQRRPCSELLKYLTTNDDPPHTKPTENRNSSRDKCASKKKSHTQPQSQHAQAKPTTLSLPLTPESPNDPKGSPFENKTIERTLSVELSGTAG		no binding
